Read-outs that look alike come from different tables or passages of the source.

For test [1], the target named is T1, TRAIL R2, recombinant (format not stated) (human, UniProt O14763 54-182, limits assumed, biotinylated in the ELISAs of paragraph 539 and paragraph 556).
T1 construct: also called biotinylated TRAIL R2; TRAIL R2 biotin
Kind of test: capture ELISA; Tn3 captured on anti-His, biotinylated TRAIL R2. The protocol: (§1) A 96-well MaxiSorb plate was coated with Qiagen anti-His antibody at 2 μg/ml overnight. The coated plate was blocked with PBS containing 0.1% v/v Tween-20 and 4% w/v skim milk powder (PBST 4% milk) for 1.5 hours. The coated plate was washed with PBST and diluted bacterial media (diluted 30-fold) containing soluble expressed proteins was added and plates were incubated at room temperature for 2 hours. […] The absorbance was read at 450 nm.

The target in test [2] is T2, human TRAIL R2-Fc fusion protein (human, UniProt O14763 54-182, limits assumed, biotinylated in the competition ELISA of Example 3).
T2 construct: also called biotinylated TRAIL R2-Fc; soluble TRAIL R2-Fc; not shown: Fc part
Description: capture ELISA: His-tagged construct captured from E. coli media on anti-His antibody, biotinylated TRAIL R2 (axis: TrailR2-Fc) titrated, streptavidin-HRP/TMB. How it is done:
as §1

The target of test [3] is T3, cynomolgus TRAIL R2-Fc (cynomolgus monkey (Macaca fascicularis)).
T3 construct: the ELISAs used the Fc fusion; also called cyno TRAIL R2-Fc; cyno TRAIL-R2-Fc
Kind of test: competition ELISA; F4 mod 1 coated plate, cyno TRAIL R2-Fc.

Test [4] addresses T2, human TRAIL R2-Fc fusion protein. Kind of test: competition ELISA; F4 mod 1 coated plate, human TRAIL R2-Fc.
The target of test [5] is T3, cynomolgus TRAIL R2-Fc. Kind of test: competition ELISA: plate coated with F4 mod 1, cyno TRAIL R2-Fc, monomer as competitor.
Test [6] has as its target T2, human TRAIL R2-Fc fusion protein. Kind of test: competition ELISA: plate coated with F4 mod 1, human TRAIL R2-Fc, monomer as competitor.
Test [7] shares this target. Description: competition ELISA: plate coated with F4 mod 1, 0.75 nM human TRAIL R2-Fc, purified monomer as competitor.
Test [8] has the same target. Description: competition ELISA; plate coated with A9(1C12), 0.75 nM biotinylated TRAIL R2-Fc. How it is done: Plates were blocked with PBS 0.1% Tween 20+10 mg/ml BSA. […] Absorbance was read at 450 nm.
Test [9] addresses T4, Human CD40L, recombinant (E. coli produced) (human, UniProt P29965 113-261, limits assumed, His-tagged (capture ELISA) or biotinylated (AlphaScreen)).
T4 construct: also called HuCD40L; huCD40L
T4 sequence (looked up): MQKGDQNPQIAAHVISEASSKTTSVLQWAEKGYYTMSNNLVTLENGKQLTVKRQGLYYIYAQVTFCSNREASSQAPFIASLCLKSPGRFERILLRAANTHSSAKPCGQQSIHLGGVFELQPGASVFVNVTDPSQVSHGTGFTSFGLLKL
Kind of test: capture ELISA: His-tagged construct captured from E. coli media on anti-His antibody, His-tagged HuCD40L preincubated with biotinylated anti-His antibody titrated, streptavidin-HRP/TMB. How it is done:
as §1

Test [10] has as its target T3, cynomolgus TRAIL R2-Fc. Description: competition ELISA: plate coated with F4 mod 1, 0.75 nM cyno TRAIL R2-Fc, purified monomer as competitor.
Test [11] has as its target T5, human TRAIL R2 on the cell surface (H2122, Colo205, Jurkat and other tumor cell lines) (human, UniProt O14763 56-440). Description: cell-based or functional assay.
Test [12] concerns the target T5, human TRAIL R2 on the cell surface …. Kind of test: cell-based or functional assay. The source holds these as a separate data set.
Test [13] shares this target. Kind of test: cell-based or functional assay. The source holds these as a separate data set.

B1: 79, monovalent human CD40L-specific Tn3 (designed binder)
chain: IEVKDVTDTTALITWIPPHNADSSIIGCELTYGIKDVPGDRTTIDLYDVAFDYSIGNLKPDTEYEVSLICDTFYGFDSNPAKETFTTGGGTLGHHHHHHHH
notes: 8xHis-tagged, captured from E. coli media; also called 79 (79); clone 79
Consider B1, for which the binding result was “no binding” in test [1] and “no binding (tested: 0.2 ug/ml)” in [2].

B2: F4 mod 12, germline engineered cyno cross reactive TRAIL R2-binding Tn3 monomer (designed binder)
chain: SQIEVKDVTDTTALITWAKPWVDPPPLWGCELTYGIKDVPGDRTTIGLQQKHNQYSIGNLKPDTEYEVSLICFDPYGLKSRPAKETFTTGLGTLGHHHHHHHH
notes: also called F4 mod 12 monomer
As to B2, the “fold difference in binding between F4 mod 1 and F4 mod 12” value in the test with cynomolgus TRAIL R2-Fc [3] is at most 2 fold. Moreover, the “fold difference in binding among F4, F4 mod 1 and F4 mod 12” value (shortened to “fold difference in binding among F4”) in test [4] was at most 6 fold. Moreover, the IC50 with cynomolgus TRAIL R2-Fc [5] was 50 nM; in test [6] it was 22 nM.

B3: F4, TRAIL R2-binding Tn3 monomer (designed binder)
chain: AIEVKDVTDTTALITWAKPWVDPPPLWGCELAYGIKDVPGDRTTIDLQQKHTAYSIGNLKPDTEYEVSLICFDPYGLKSRPAKETFTTGGGTLGHHHHHHHH
notes: also called clone F4; original F4
As for B3, the “fold difference in binding among F4” value in test [4] is at most 6 fold. The IC50 in test [6] and in test [7] was 89 nM throughout.

B4: A1 (1E11), monovalent TRAIL R2-specific Tn3 scaffold (designed binder)
chain: AIEVKDVTDTTALITWAKPWVDPPPLWGCELAYGIKDVPGDRTTIDLQQKHTAYSIGNLKPDTEYEVSLICFDPYGAKSNPAKETFTTGGGTLGHHHHHHHH
notes: His-tagged monomer expressed in E. coli; also called 1E11 monomer
In test [8], B4 returned a half-maximal inhibitory concentration (IC50) of 16 nM. In test [9], the binding result is given as “no binding (tested: 5.00E-02 ug/ml)”.

B5: F4 mod 1, cyno cross reactive TRAIL R2-binding Tn3 monomer (designed binder)
chain: AIEVKDVTDTTALITWAKPWVDPPPLWGCELAYGIKDVPGDRTTIGLQQKHTAYSIGNLKPDTEYEVSLICFDPYGLKSRPAKETFTTGGGTLGHHHHHHHH
notes: F4 with a D to G mutation two amino acids before the DE loop; also called F4 mod 1 monomer
With B5, in the test with cynomolgus TRAIL R2-Fc [3], the “fold difference in binding between F4 mod 1 and F4 mod 12” value is at most 2 fold. Also, the “fold difference in binding among F4” value in [4] is at most 6 fold. Also, the half-maximal inhibitory concentration (IC50) amounted to 34 nM in the test with cynomolgus TRAIL R2-Fc [5], 15 nM in test [6], 34 nM with cynomolgus TRAIL R2-Fc [10] and 15 nM in test [7].

B6: A3 (1E11), tetravalent linear tandem Tn3 (designed binder)
chain: SGGGGSAIEVKDVTDTTALITWAKPWVDPPPLWGCELAYGIKDVPGDRTTIDLQQKHTAYSIGNLKPDTEYEVSLICFDPYGAKSNPAKETFTTGGGGSGGGGSGGGGSAIEVKDVTDTTALITWAKPWVDPPPLWGCELAYGIKDVPGDRTTIDLQQKHTAYSIGNLKPDTEYEVSLICFDPYGAKSNPAKETFTTGGGGSGGGGSGGGGSAIEVKDVTDTTALITWAKPWVDPPPLWGCELAYGIKDVPGDRTTIDLQQKHTAYSIGNLKPDTEYEVSLICFDPYGAKSNPAKETFTTGGGGSGGGGSGGGGSAIEVKDVTDTTALITWAKPWVDPPPLWGCELAYGIKDVPGDRTTIDLQQKHTAYSIGNLKPDTEYEVSLICFDPYGAKSNPAKETFTTGGGGSGGGGSGTLGHHHHHHHH
Turning to B6, the “potency in inhibiting H2122 cell viability relative to A9” value in test [11] is around 150 fold. Moreover, the “Maximum Inhibition %, H2122” value in test [12] was found to be 91%. In addition, the “Maximum Inhibition %, H2122” value in [13] amounted to 91%. For the same molecule, in test [8], the IC50 was determined as 0.4 nM, the “fold higher affinity relative to the monomeric A1 protein” value fell in the range of 30 to 40 fold and the “fold lower IC50 than the monomer A1” value is at least 30 fold.

B7: A2 (1E11), bivalent linear tandem Tn3 (designed binder)
chain: SGGGGSAIEVKDVTDTTALITWAKPWVDPPPLWGCELAYGIKDVPGDRTTIDLQQKHTAYSIGNLKPDTEYEVSLICFDPYGAKSNPAKETFTTGGGGSGGGGSGGGGSAIEVKDVTDTTALITWAKPWVDPPPLWGCELAYGIKDVPGDRTTIDLQQKHTAYSIGNLKPDTEYEVSLICFDPYGAKSNPAKETFTTGGGGSGGGGSGTLGHHHHHHHH
On to B7, for which, in test [8], the half-maximal inhibitory concentration (IC50) was found to be 0.5 nM, the “fold higher affinity relative to the monomeric A1 protein” value lay within 30 to 40 fold and the “fold lower IC50 than the monomer A1” value is at least 30 fold.

The values above are taken from patent publication US20130079280A1 (MEDLMMUNE, published 2013).
